According to the supplement of paper PMC12042874:
± gives the uncertainty stated by the source.

Assay: amyloid nucleation score (Sup35N fusion, yeast selection) (log enrichment); library NNK1; higher = more nucleation; inactive = no reads after selection
Method in brief: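 Peptides of 20 random codons fused to Sup35N were expressed in psi-negative yeast, induced 24 hours with 100 μM copper sulfate, then grown 7 days at 30°C on medium lacking adenine and uracil. Input and output plasmid inserts were Illumina-sequenced. Nucleation score is the DiMSum log enrichment of output over input reads, centred on the mode score of non-aggregating sequences, excluding sequences with under 100 input reads. Random libraries had three technical output replicates.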

Q: For HVYCLRWRYC, which amyloid nucleation score is on record?
A: The amyloid nucleation score was -0.318 ± 0.35.

Q: For LSSTSV, which amyloid nucleation score is on record?
A: Its amyloid nucleation score is 0.425 ± 0.44.

Q: For MMAIIFMCNV, which amyloid nucleation score is on record?
A: The amyloid nucleation score was 3.05 ± 0.18.

Q: For EWVVWVDCRGRYADNVSGGA, which amyloid nucleation score is on record?
A: Its amyloid nucleation score is -0.558 ± 0.53.

Q: For RGSCMIVGKACS, which amyloid nucleation score is on record?
A: Its amyloid nucleation score is -0.37 ± 0.33.

Q: Which amyloid nucleation score does the source give for VLANDVVPNSIYKKVSITYC here?
A: The amyloid nucleation score was 0.884 ± 0.7.

Q: With GNDLNRREVELGLNSIYKSY as the substance, how does the amyloid nucleation score read?
A: The amyloid nucleation score was 0.711 ± 0.73.

Q: Which amyloid nucleation score does the source give for DDGPLWRMKEMCLVTVRGSE here?
A: Its amyloid nucleation score is 0.91 ± 0.29.

Q: With YSMLCLKYL as the substance, how does the amyloid nucleation score read?
A: Its amyloid nucleation score is “inactive”.

Q: For YWLNNYYVVGNIS, which amyloid nucleation score is on record?
A: The amyloid nucleation score was 2.57 ± 0.25.

Q: With LVFANSHGFCGKSSLLRVGD as the substance, how does the amyloid nucleation score read?
A: Its amyloid nucleation score is “inactive”.

Q: With TAVDLWYGGVGGLALNGVVS as the substance, how does the amyloid nucleation score read?
A: The amyloid nucleation score was 0.594 ± 0.62.

Q: Which amyloid nucleation score does the source give for SACQLFGVMVPEHRRALMVW here?
A: Its amyloid nucleation score is 0.018 ± 0.42.

Q: For IRGTLT, which amyloid nucleation score is on record?
A: Its amyloid nucleation score is -1.42 ± 2.1.

Q: Which amyloid nucleation score does the source give for GRRYCRANSWLATTSSRISL here?
A: Its amyloid nucleation score is 2.1 ± 0.44.

Q: With DIRLTMRVSSLSM as the substance, how does the amyloid nucleation score read?
A: Its amyloid nucleation score is 0.566 ± 0.31.

Q: For TFFVVCKSTLILYEI, which amyloid nucleation score is on record?
A: The amyloid nucleation score was -0.186 ± 0.52.

Q: With IRRRRTNIWGWAIYRAISIY as the substance, how does the amyloid nucleation score read?
A: Its amyloid nucleation score is 0.345 ± 0.4.

Q: Which amyloid nucleation score does the source give for WASEMRHGWRAHNIYVGEDC here?
A: Its amyloid nucleation score is 0.937 ± 0.59.

Q: With LGCFGIAATKIRKVDMRLGG as the substance, how does the amyloid nucleation score read?
A: The amyloid nucleation score was 0.729 ± 0.39.

Q: Which amyloid nucleation score does the source give for ALHCQPVGH here?
A: The amyloid nucleation score was -0.006 ± 0.32.

Q: With MDGFERWGSYVTWSQLVMIR as the substance, how does the amyloid nucleation score read?
A: The amyloid nucleation score was -0.837 ± 0.98.

Q: For TGAYSECFALLIMG, which amyloid nucleation score is on record?
A: Its amyloid nucleation score is -1.09 ± 1.

Q: With GKNWVRPRPGLVTNTKEYES as the substance, how does the amyloid nucleation score read?
A: The amyloid nucleation score was -0.46 ± 0.76.

Q: With GSKRT as the substance, how does the amyloid nucleation score read?
A: The amyloid nucleation score was 0.316 ± 0.42.

Q: For KLNGNINFCFNCGNSGF, which amyloid nucleation score is on record?
A: The amyloid nucleation score was 7.27 ± 0.046.

Q: With TPYYPSQKQCRMPRGACVL as the substance, how does the amyloid nucleation score read?
A: Its amyloid nucleation score is -0.435 ± 0.48.

Q: For PAVFCW, which amyloid nucleation score is on record?
A: The amyloid nucleation score was 0.387 ± 0.48.

Q: For CGHMR, which amyloid nucleation score is on record?
A: Its amyloid nucleation score is 0.327 ± 0.33.

Q: Which amyloid nucleation score does the source give for MRFAVTD here?
A: The amyloid nucleation score was -0.146 ± 0.23.

Q: For THDLRLMIGHDCDTVNGYSR, which amyloid nucleation score is on record?
A: Its amyloid nucleation score is -0.725 ± 0.43.

Q: Which amyloid nucleation score does the source give for DMVYYNEIPKGRYQHPAG here?
A: Its amyloid nucleation score is 0.593 ± 0.56.

Q: Which amyloid nucleation score does the source give for LYACNFFVFISRPAGMDSAS here?
A: The amyloid nucleation score was 5.29 ± 0.079.

Q: Which amyloid nucleation score does the source give for TIDCMLWGYFRNDSTKCTAA here?
A: The amyloid nucleation score was 0.205 ± 0.47.

Q: Which amyloid nucleation score does the source give for VGNEWSVLRLGGGVGSIFL here?
A: Its amyloid nucleation score is -1.07 ± 1.3.

Q: With VCMLVHLVTFAPNS as the substance, how does the amyloid nucleation score read?
A: Its amyloid nucleation score is 2.61 ± 0.26.

Q: With MSKKMQRPRVAAVGFERFGT as the substance, how does the amyloid nucleation score read?
A: The amyloid nucleation score was -0.174 ± 0.9.

Q: With GSHSRGY as the substance, how does the amyloid nucleation score read?
A: Its amyloid nucleation score is -0.289 ± 0.36.

Q: For FISVGAFGYTMILNVFN, which amyloid nucleation score is on record?
A: The amyloid nucleation score was 5.445 ± 0.051.

Q: For NSATRREPSVVGLYWSVR, which amyloid nucleation score is on record?
A: Its amyloid nucleation score is -2.42 ± 2.7.

Q: With YRLILVANVQMDHWES as the substance, how does the amyloid nucleation score read?
A: Its amyloid nucleation score is -0.38 ± 0.44.

Q: With GSKKYQIMSVSELKVQCCGS as the substance, how does the amyloid nucleation score read?
A: Its amyloid nucleation score is 0.445 ± 0.34.

Q: With FCYFRVFVKSILDDWN as the substance, how does the amyloid nucleation score read?
A: Its amyloid nucleation score is 0.278 ± 0.31.

Q: Which amyloid nucleation score does the source give for CLIVKRIFFYLNYHKKVELL here?
A: The amyloid nucleation score was -0.573 ± 1.4.

Q: With RACVNSHQRMGGDGSLSMVL as the substance, how does the amyloid nucleation score read?
A: Its amyloid nucleation score is 2.48 ± 0.15.

Q: With VWYFISTYCWDRPKVILSGV as the substance, how does the amyloid nucleation score read?
A: The amyloid nucleation score was -1.39 ± 1.9.

Q: With VEIYWWGYPPKNSI as the substance, how does the amyloid nucleation score read?
A: The amyloid nucleation score was -0.239 ± 0.39.

Q: For PPSLQ, which amyloid nucleation score is on record?
A: The amyloid nucleation score was -0.263 ± 1.4.

Q: With NVLVAVFLFYVGPIGVAHCY as the substance, how does the amyloid nucleation score read?
A: Its amyloid nucleation score is 1.12 ± 0.37.

Q: Which amyloid nucleation score does the source give for GENPGQDYASGFLNVFKNYL here?
A: The amyloid nucleation score was 1.01 ± 0.54.

Q: For TPGVKPYYWIRLTEIVATHS, which amyloid nucleation score is on record?
A: Its amyloid nucleation score is 0.52 ± 1.2.

Q: Which amyloid nucleation score does the source give for YSGRRQETNVGRLRSNWGGL here?
A: Its amyloid nucleation score is -0.568 ± 0.39.

Q: Which amyloid nucleation score does the source give for VNAIYDSWLSL here?
A: The amyloid nucleation score was “inactive”.

Q: Which amyloid nucleation score does the source give for VSWYSSVIKL here?
A: Its amyloid nucleation score is “inactive”.

Q: For LNSLPLSTVLYSFRVMYWMY, which amyloid nucleation score is on record?
A: The amyloid nucleation score was “inactive”.

Q: For CLDMVWDLTVMFMF, which amyloid nucleation score is on record?
A: The amyloid nucleation score was 1.11 ± 0.19.

Q: With WSNGF as the substance, how does the amyloid nucleation score read?
A: Its amyloid nucleation score is 1.89 ± 0.45.

Q: With MDKEESRCVELSLMSVSVMG as the substance, how does the amyloid nucleation score read?
A: Its amyloid nucleation score is 1.35 ± 0.79.

Q: With VRSRLLQNLSDIPNQPIRWD as the substance, how does the amyloid nucleation score read?
A: The amyloid nucleation score was -0.105 ± 0.33.

Q: For YLMKRSWTGMIGLGTQVKSS, which amyloid nucleation score is on record?
A: The amyloid nucleation score was 0.9 ± 0.58.

Q: For NLNFAAPKGGV, which amyloid nucleation score is on record?
A: Its amyloid nucleation score is -0.735 ± 2.4.

Q: With YNVKVMCSVQSEMRGIT as the substance, how does the amyloid nucleation score read?
A: Its amyloid nucleation score is 0.465 ± 0.68.

Q: With AFGMIVLGRSTNGGYCTDGN as the substance, how does the amyloid nucleation score read?
A: The amyloid nucleation score was 2.83 ± 0.16.

Q: For SATASNGRMAGSVSSWRKRW, which amyloid nucleation score is on record?
A: The amyloid nucleation score was 0.219 ± 0.36.

Q: Which amyloid nucleation score does the source give for FHRWLDMWSLRRDFIGYGLG here?
A: The amyloid nucleation score was 0.095 ± 0.77.

Q: With GLGFTGWF as the substance, how does the amyloid nucleation score read?
A: Its amyloid nucleation score is 0.708 ± 0.73.

Q: For KDMDSFSTTCLLLRLRGRTG, which amyloid nucleation score is on record?
A: The amyloid nucleation score was 0.053 ± 0.35.

Q: For IALLNGNNLSPT, which amyloid nucleation score is on record?
A: The amyloid nucleation score was 9.502 ± 0.052.

Q: For LHGPWVVYFELSSIFTLTYQ, which amyloid nucleation score is on record?
A: The amyloid nucleation score was -0.478 ± 0.29.

Q: For CVLVNVNNDQSWWR, which amyloid nucleation score is on record?
A: Its amyloid nucleation score is 5.04 ± 0.076.

Q: For QSVGMWSY, which amyloid nucleation score is on record?
A: Its amyloid nucleation score is -0.256 ± 0.88.

Q: Which amyloid nucleation score does the source give for VVRFCYTEEVRVFNQASLRE here?
A: The amyloid nucleation score was 0.134 ± 0.5.
